Data published in FireProtDB (doi:10.1021/bi00492a006).

Details: Bacillus amyloliquefaciens; pH 6.3; 25 °C; Urea; Fluorescence; MES-NaOH 50 mM; reversible: yes; whole UniProt chain shown

B1: Ribonuclease wild type, P00648 (protein)
chain: MMKMEGIALKKRLSWISVCLLVLVSAAGMLFSTAAKTETSSHKAHTEAQVINTFDGVADYLQTYHKLPDNYITKSEAQALGWVASKGNLADVAPGKSIGGDIFSNREGKLPGKSGRTWREADINYTSGFRNSDRILYSSDWLIYKTTDHYQTFTKIR
denaturant m value: 2.21 kcal/mol/M | denaturant midpoint (higher = more stable): 4.53 M | unfolding free energy: 10 kcal/mol
